The experiment deals with T1, Fc-tagged receptor-binding domain (RBD) of the SARS-CoV-2 spike (S) protein (SARS-CoV-2, Wuhan-Hu-1 (GenBank …, UniProt P0DTC2)).
T1 construct: also called SARS-CoV-2 RBD; SARS-CoV-2 S RBD-Fc; not shown: Fc, C-terminal, kept
In words: BLI; Octet Red96e; Fc-tagged RBD loaded onto the biosensor (streptavidin biosensors as printed), Fab in solution; 1x PBS pH 7.4, 0.01% w/v BSA, 0.002% v/v Tween 20; 60 s association, 60 s dissociation; 1:1 binding model. The settings on record: both partners purified. A general note: In BLI a coated tip is dipped into the sample, and binding shifts an interference pattern.

Here are results for two molecules from article doi:10.1101/2021.01.26.428356, “Sequence signatures of two IGHV3-53/3-66 public clonotypes to SARS-CoV-2 receptor binding domain” (bioRxiv, 2021).

B1: COVA2-20 Fab, F58 variant (heavy chain Y58F) (Fab, V domains shown)
VH: EVQLVESGGGLIQPGGSLRLSCAASGFTVSSNYMSWVRQAPGKGLEWVSVIYSGGSTFYADSVKGRFTISRDNSKNTLYLQMNSLRAEDTAVYYCASPLLLTPPDYYYYMDVWGKGTMVTVSS
VL: DVVMTQSPSSLSVSVGDRVTITCRASQGIRNDLGWYQQKPGKAPKRLIYAASSLQSGVPSRFSGSGSGTEFTLTISSLQPEDFATYYCLQHNSYLWTFGQGTKLEIK
notes: also called COVA2-20 F58
For B1, the binding result is reported as “binds”.

B2: CC12.3 Fab, Y58 variant (heavy chain F58Y) (Fab, V domains shown)
VH: QVQLVESGGGLIQPGGSLRLSCAASGFTVSSNYMSWVRQAPGKGLEWVSVIYSGGSTYYADSVKGRFTISRDNSKSTLYLQMNSLRVEDTAVYYCARDFGDFYFDYWGQGTLVTVSS
VL: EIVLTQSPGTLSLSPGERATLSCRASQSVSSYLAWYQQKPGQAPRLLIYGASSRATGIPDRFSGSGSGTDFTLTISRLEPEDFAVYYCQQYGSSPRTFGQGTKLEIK
notes: also called CC12.3 Y58
B2: the binding result is recorded as “binds”.
